Where a chain is given by its changes, count along the chain named. Where two headings read alike, the source gives them in different places.

Common to all, as to assay: EMSA
In general terms: In EMSA bound probe runs differently from free probe, usually more slowly.

The target of data set [1] is T1, Aca11 (Streptococcus sp. F0441).
T1 chain: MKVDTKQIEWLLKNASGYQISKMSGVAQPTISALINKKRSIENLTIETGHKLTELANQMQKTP

Data set [2] concerns the target T1, Aca11.
Data set [3] addresses T2, AcrIIA32 (Acr-Aca13 fusion) (Streptococcus uberis NZ01).
T2 chain: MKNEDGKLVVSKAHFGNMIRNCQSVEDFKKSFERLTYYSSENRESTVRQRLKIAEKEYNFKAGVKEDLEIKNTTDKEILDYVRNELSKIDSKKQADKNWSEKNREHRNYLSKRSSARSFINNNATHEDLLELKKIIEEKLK

Data set [4] addresses T3, A32CTD (Aca13) (Streptococcus uberis NZ01).
T3 chain: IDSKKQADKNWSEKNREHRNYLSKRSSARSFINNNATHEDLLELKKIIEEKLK

Data set [5] deals with T2, AcrIIA32 (Acr-Aca13 fusion).
The target of data set [6] is T3, A32CTD (Aca13).
In another data set the target is T4, A35-n-Aca13.
T4 chain: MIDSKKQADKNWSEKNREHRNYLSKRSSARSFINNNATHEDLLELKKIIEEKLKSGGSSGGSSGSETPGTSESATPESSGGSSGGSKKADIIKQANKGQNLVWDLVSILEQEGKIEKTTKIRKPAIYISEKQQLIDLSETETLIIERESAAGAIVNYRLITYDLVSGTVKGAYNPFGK

The target of another data set is T5, A35-c-Aca13.
T5 chain: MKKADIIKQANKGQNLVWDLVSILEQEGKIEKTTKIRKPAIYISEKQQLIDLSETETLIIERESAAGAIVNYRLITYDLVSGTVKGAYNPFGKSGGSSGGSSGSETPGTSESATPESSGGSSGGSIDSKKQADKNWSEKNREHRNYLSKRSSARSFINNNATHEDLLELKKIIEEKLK

B1: Aca11-s1 scIR probe (dsDNA)
DNA 1: GTGTTGACAGGCGCGCCTCAATGTTATATACTATACTTGTAAGATAAATAAAACAA
DNA 2: TTGTTTTATTTATCTTACAAGTATAGTATATAACATTGAGGCGCGCCTGTCAACAC
Take B1: the binding result in the data set with Aca11 [1] is given as “no binding”.

B2: Aca11-s1 IR WT probe (dsDNA)
DNA 1: GTGTTGACAGTATATAACAAATGTTATATACTATACTTGTAAGATAAATAAAACAA
DNA 2: TTGTTTTATTTATCTTACAAGTATAGTATATAACATTTGTTATATACTGTCAACAC
Consider B2, for which the binding result with Aca11 [2] is on record as “binds”.

B3: Aca13-s1 scIR2 probe (dsDNA)
DNA 1: AGTTGATAAAAAGTGTTGACTTTTTAACGTACAGAGCTGTGCATATAATCATAAAGAT
DNA 2: ATCTTTATGATTATATGCACAGCTCTGTACGTTAAAAAGTCAACACTTTTTATCAACT
Take B3: the binding result (in data set [3]; in the data set with A32CTD (Aca13) [4]) was “no binding” throughout.

B4: Aca13-s1 WT probe (Aca13 probe) (dsDNA)
DNA 1: AGTTGATAAAAAGTGTTGACTTTTTAACGTACATGTACTATAATATAATCATAAAGAT
DNA 2: ATCTTTATGATTATATTATAGTACATGTACGTTAAAAAGTCAACACTTTTTATCAACT
As to B4, the binding result (in data set [5]; with A32CTD (Aca13) [6]; with A35-n-Aca13; with A35-c-Aca13) was “binds” in each case.

B5: Aca13-s1 scIR1 probe (dsDNA)
DNA 1: B4 DNA 1 with A8C, A9C, A10C, A11C, A12C, G13T, T14A
DNA 2: B4 DNA 2 with A45T, C46A, T47G, T48G, T49G, T50G, T51G
B5: the binding result (in data set [5]; in the data set with A32CTD (Aca13) [6]) was “binds” throughout.

Values taken from article PMC12282945.
